Test results published in publication PMC11368712.

Key:
[1] = target: AgaBb1180 (Bifidobacterium bifidum JCM 1254); assay: SEC
[2] = target: AgaBb1191 (α-galactosidase from Bifidobacterium bifidum JCM 1254, residues 23-1191, without the N-terminal T7-tag) (Bifidobacterium bifidum JCM 1254); assay: SEC

## AgaBb1180 (domain or fragment)
[1]
  stoichiometry N: 2

## AgaBb1191 (α-galactosidase from Bifidobacterium bifidum JCM 1254, residues 23-1191, without the N-terminal T7-tag) (domain or fragment)
[2]
  stoichiometry N: 2
